The target in this test is T1, PAG (protein associated with glycosphingolipid-enriched microdomains) (UniProt Q9NWQ8 1-432).
T1 construct: Endogenous protein of human tumor cell lines, probed by immunoblot in the CD55 immunoprecipitate
T1 sequence (looked up): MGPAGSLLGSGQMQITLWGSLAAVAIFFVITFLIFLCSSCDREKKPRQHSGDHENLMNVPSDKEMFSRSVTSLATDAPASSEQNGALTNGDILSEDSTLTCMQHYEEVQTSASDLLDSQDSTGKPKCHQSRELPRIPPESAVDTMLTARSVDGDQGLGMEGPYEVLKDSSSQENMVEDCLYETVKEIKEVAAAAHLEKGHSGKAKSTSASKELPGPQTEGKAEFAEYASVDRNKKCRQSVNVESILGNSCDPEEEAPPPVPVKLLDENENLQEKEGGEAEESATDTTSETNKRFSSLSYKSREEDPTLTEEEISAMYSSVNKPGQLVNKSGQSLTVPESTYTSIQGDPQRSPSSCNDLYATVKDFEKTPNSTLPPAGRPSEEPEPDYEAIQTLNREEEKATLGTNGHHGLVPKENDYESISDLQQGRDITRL
The test is described as follows: co-immunoprecipitation with anti-CD55 antibody from endometrioid CSC lysates, immunoblot for PAG.

Experimental: Membranes were incubated overnight at 4° C. with primary antibodies against CD55 (1:1000) (Santa Cruz, Calif.), CD59 (1:1000) (Abcam), CD46 (1:1000) (Santa Cruz, Calif.), NANOG (1:500) (Cell Signaling), SOX2 (1:500) (Cell Signaling), OCT4 (1:500) (Cell Signaling), ROR2 (1:1000) (BD Biosciences), pJNK1 (1:1000) (T183/Y185) (Cell Signaling), JNK1 (1:1000) (Cell Signaling), p-c-Jun (1:1000) (S73) (Cell Signaling), p-c-Jun (1:1000) (S63) (Cell Signaling), c-Jun (1:1000) (Cell Signaling), pLCK (Y394) (1:1000) (BD Biosciences), LCK (1:1000) (Santa Cruz, Calif.), LIME (1:1000) (Invitrogen), PAG (1:1000) (Genetex), and (3-actin (1:1000) (Cell Signaling). Secondary anti-mouse or anti-rabbit IgG antibodies conjugated to horse radish peroxidase (HRP) (1:2000) (Thermo, Rockford, IL) were used and immunoreactive bands were visualized using the ECL plus from Pierce (Rockford, Ill., USA).
The lysates were spun at 12,000xg for 15 min at 4° C. Supernatants were incubated with rabbit anti-human CD55 primary antibody (SantaCruz, Calif.) and the corresponding antibody control for 1 hour at 4° C. Protein A/G agarose beads (Santa Cruz, Dallas, Tex.) were added to lysates which were subsequently incubated on a rotating mixer overnight at 4° C. The beads were then washed 3-4 times at 4° C., and Laemmli sample buffer was added to the beads and boiled for 5 minutes. […]

B1: CD55 (decay accelerating factor) (other, human, UniProt P08174 35-353, looked up)
chain: DCGLPPDVPNAQPALEGRTSFPEDTVITYKCEESFVKIPGEKDSVICLKGSQWSDIEEFCNRSCEVPTRLNSASLKQPYITQNYFPVGTVVEYECRPGYRREPSLSPKLTCLQNLKWSTAVEFCKKKSCPNPGEIRNGQIDVPGGILFGATISFSCNTGYKLFGSTSSFCLISGSSVQWSDPLPECREIYCPAPPQIDNGIIQGERDHYGYRQSVTYACNKGFTMIGEHSIYCTVNNDEGEWSGPPPECRGKSLTSKVPPTVQKPTTVNVPTTEVSPTSQKTTTKTTTPNAQATRSTPVSRTTKHFHETTPNKGSGTTS
modifications: GPI anchor (glycophosphatidylinositol-anchored to lipid rafts)
notes: Endogenous protein pulled down from 0.5% Triton X-100 cell lysates
Turning to B1, the binding result is on record as “no binding”.

The values above are taken from patent US20200121703A1 (CLEVELAND CLINIC FOUNDATION, published 2020).
